Data published in article PMC4005822, “Biochemical and functional characterization of Plasmodium falciparum GTP cyclohydrolase I” (Malaria Journal, 2014).

What was measured:
[1] = target: T1, Plasmodium falciparum Δ1-195 GCH1 (core GCH1) (Plasmodium falciparum, UniProt Q8I5H7); experiment: fluorescence of iodine-oxidised neopterin product; initial velocity at various GTP concentrations; type: biochemical; conditions: GTP as substrate; called competitive by the authors
T1 construct: gene PF3D7_1224000; C-terminal core domain, residues 196-389 (N-terminal 1-195 deleted); pET45b(+), E. coli BL21(DE3)RIL, Ni-sepharose purified (His tag); homodecamer
T1 sequence (Q8I5H7 entry or part of it, stated change not applied): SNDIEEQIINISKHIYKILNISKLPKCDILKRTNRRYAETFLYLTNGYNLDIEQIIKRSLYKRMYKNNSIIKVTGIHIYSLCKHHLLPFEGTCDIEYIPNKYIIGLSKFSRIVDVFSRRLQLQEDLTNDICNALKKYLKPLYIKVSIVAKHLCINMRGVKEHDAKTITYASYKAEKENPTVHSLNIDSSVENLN

[2] = tested on: Nc1nc2c(ncn2[C@@H]2O[C@H](COP(=O)(O)OP(=O)(O)OP(=O)(O)O)[C@@H](O)[C@H]2O)c(=O)[nH]1; experiment: fluorescence of iodine-oxidised neopterin product; type: biochemical, Plasmodium falciparum; conditions: 50 mM Tris–HCl pH 7.8, 100 mM KCl, 20% glycerol, 37°C

Row | Compound | fluorescence of iodine-oxidised neopterin product; initial velocity at various G [1] | Km [2] | kcat [2]
1 | Nc1nc2c([nH]c(=O)n2[C@@H]2O[C@H](COP(=O)(O)OP(=O)(O)OP(=O)(O)O)[C@@H](O)[C@H]2O)c(=O)[nH]1 [8-oxo-GTP] | 8-oxo-GTP could inhibit the activity of P. falciparum GCH1 with reduced fluorescent signal | – | –
2 | Plasmodium falciparum Δ1-195 GCH1 (core GCH1) (Plasmodium falciparum 3D7) | – | 12.06 µM | 0.039 s⁻¹
